pKd: −log10 of the molar value.

The values below come from publication PMC12796453.

Assay in all cases: SPR
The target in test [1] is afucosylated agalactosylated KiH-A330W anti-DENV2 E protein IgG1 (C10) (human).
Test [2] addresses bifucosylated A330W E269M KiH Rituximab IgG1 (human).
Test [3] addresses afucosylated A330W E269I KiH Rituximab IgG1 (human).
For test [4], the target named is bifucosylated A330W E269I KiH Rituximab IgG1 (human).
Test [5] addresses monoglycosylated bifucosylated IgG (human).
The target of test [6] is monoglycosylated monofucosylated IgG (human).
Test [7] concerns the target monofucosylated A330W E269I KiH Rituximab IgG1 (human).
Test [8] has as its target monofucosylated A330W E269M KiH Rituximab IgG1 (human).

“soluble human FcγRIIIA-F158 ectodomain (from UniProt P08637 17-208) (receptor)”: the negative logarithm of the Kd (pKd) is 7.41 in test [1]; 5.83 in test [2]; 6.80 in test [3]; 5.68 in test [4]; 5.79 in test [5]; 6.26 in test [6]. Further, the pKd in test [7] is 6.16; in test [8] it was 6.92.
